Source: patent US20040139485A1 (US Dept. of Health and Human Services, published 2004)

B1: pRb (retinoblastoma gene product), endogenous in rat liver epithelial cell extracts (other)
chain: PPKAPRRTAAAEPPPPPPPPPEDDPAQDSDPEELPLIRLEFEKIEEPEFIALCQKLKVPDHVRERAWLTWEKVSSVDGILEGYIQKKKELWGICIFIAAVDLDEMPFTFTELQKSIETSVYKFFDLLKEIDTSTKVDNAVSRLLKKYNVLCALYSKLERTCGLIYLTQPSSGLSTEINSMLVLKVSWITFLLAKGEVVQMEDDLVISFQLMLCVLDYFIKLSPPALLREPYKTAATPINGSPRTPRRGQNRSARIAKQLESDTRTIEVLCKEHECNVDEVKNVYFKNFIPFISSLGIVSSNGLPELESLSKRYEEVYLKSKDLDARLFLDHDKTLQTDTIDSFETERTPRKSNPDEEANMVTPHTPVRTVMNTIQQLMVILNSASDQPSENLISYFSNCTVNPKENILKRVKDVGHIFKEKFASAVGQGCIDIGAQRYKLGVRLYYRVMESMLKSEEERLSIQNFSKLLNDNIFHMSLLACALEVVMATYSRSMLQNLDSGTDLSFPWILNVLNLKAFDFYKVIESFIKVEANLTREMIKHLERCEHRIMESLAWLSDSPLFDLIKQSKDGEGPDHLESACSLSLPLQSNHTAADMYLSPIRSPKKRTSTTRVNSAANTETQAASAFHTQKPLKSTSLSLFYKKVYRLAYLRLNTLCARLLSDHPELEHIIWTLFQHTLENEYELMKDRHLDQIMMCSMYGICKVKNIDLKFKIIVTAYKDLPHAAQETFKRVLIREEEFDSIIVFYNSVFMQRLKTNILQYASTRPPTLSPIPHIPRSPYKFSSSPLRIPGGNIYISPLKSPYKISEGLPTPTKMTPRSRILVSIGESFGTSEKFQKINQMVCNSDRVLKRSAEGGNPPKPLKKLRFDIEGSDEADGSKHLPAESKFQQKLAEMTSTRTRMQKQKLNDSMEISNKEEK
B2: BOG-MBP chimeric protein (complete rBOG fused to the carboxy-terminal of maltose binding protein, pMAL-P2-BOG) (other, not shown: large carriers)
chain: MVSPTKAVIVPGNGGGDVATHGWYGWVRKGLEQIPGFQCLAKNMPDPITARESIWLPFMETELHCDEKTIIIGHSSGAIAAMRYAETHQVYALILVSAYTSDLGDENERASGYFSRPWQWEKIKANCPHIIQFGSTDDPFLPWKEQQEVADSWTPNCTNSLTVVTFRTQSSMN
notes: Any vector-encoded linker between MBP and BOG is not described; also called fusion protein BOG-MBP; chimeric BOG-MBP

What was measured:
[1] = target: maltose binding protein without BOG (UniProt P0AEX9 27-392 = MBP); experiment: precipitation from whole cell lysates with amylose-purified protein
[2] = target: B1; experiment: precipitation of pRb from whole cell lysates by amylose-purified BOG-MBP

Binder | binding result [1] | binding result [2]
B1 | no binding | –
B2 | – | binds
